Assay [1] deals with T1, Human FGF19 (human, UniProt O95750 25-216).
T1 construct: Recombinant soluble protein; also called huFGF19; Fibroblast growth factor 19
The experiment in a line: SPR (BIAcore 2000), IgG on chip, soluble human FGF19. On the technique in general: In SPR one partner is held on a chip, and binding of the other changes the refractive index at the surface.

Assay [2] concerns the target T1, Human FGF19. The assay is described as above. The source holds these as a separate data set.
For assay [3], the target named is T1, Human FGF19. The assay can be described thus: Solid phase receptor binding assay: FGFR4-Fc captured on an anti-human Fc plate, FGF19 (0.25 µg/ml) incubated with titrated anti-FGF19 antibody, bound FGF19 detected with biotinylated polyclonal anti-FGF19 / streptavidin-HRP (OD 450 nm); blocked ligand-receptor pair FGF19/FGFR4. Here is the method:
(§1) Maxisorb 96 well plates were coated overnight at 4° C. with 50 μl of 2 μg/ml anti-human immunoglobulin Fcγ fragment specific (Jackson Immunoresearch) and used to capture 1 μg/ml FGFR-Fc chimeric proteins (R & D Systems). The non-specific binding sites were saturated with PBS/3% BSA for 1 hour and FGF19 (0.25 μg/ml) was incubated for 2 h in PBS/0.3% BSA in the presence of oligosaccharides (0.5 μg/ml; Neoparin Inc.) and the indicated anti-FGF19 antibody (0-10 μg/ml). FGF19 binding was detected using a biotinylated FGF19 specific polyclonal antibody (0.5 μg/ml; BAF969; R & D Systems) followed by streptavidin-HRP and TMB colorimetric substrate.
(§2) Humanized anti-FGF19 antibody 1A6.v1 was characterized as follows: [0531] (1) In an assay to test ability of 1A6.v1 to block binding of FGF19 to its receptor, FGFR4, 1A6.v1 was able to block FGF19 binding to its receptor at least as well as one comparator antibody—namely a chimeric antibody (which comprised the variable regions from the murine parent 1A6 antibody (variable domains depicted in FIG. 8) fused to a human Fc region). […] [0532] (2) 1A6.v1 was also tested for cross-species binding among human and primate (Cynomolgus macaque monkey). […] [0533] (3) 1A6.v1 was tested for in vitro efficacy using a colon tumor cell line (HCT116 cells). […] [0534] […]

The target in another assay is T2, Cynomolgus FGF19 (cynomolgus monkey).
T2 construct: also called Cyno FGF19; cynoFGF19
The assay can be described thus: SPR (BIAcore 2000), IgG on chip, soluble cynomolgus FGF19.

Assay [4] concerns the target T1, Human FGF19. The experiment in a line: solid phase receptor binding assay: antibody blocks FGF19 binding to plate-captured FGFR4-Fc. As to the method: as §1, §2
Assay [5] addresses T1, Human FGF19. The experiment in a line: SPR (BIAcore 2000), IgG on chip, soluble human FGF19. The source holds these as a separate data set.
The target of assay [6] is T1, Human FGF19. The experiment in a line: SPR (Biacore), 1A6-graft as IgG, soluble human FGF19; reference chimeric 1A6.

Numbering of substitutions follows the chain as printed. Names and notes keep the numbering of the source. Read-outs that look alike come from different tables or passages of the source. Bounds are passed on as bounds.

As a reminder, the Kd is a measure of binding affinity in units of concentration. A high value points to a looser complex. As a reminder, the koff is the first-order rate constant of dissociation. As usually defined, the kon is the rate constant with which the complex forms. A higher kon goes with fast association. Usually IC50 stands for the concentration that inhibits the measured activity by half. Low values mean inhibition by little substance, high ones a need for much substance.

T1 sequence (O95750 25-216 limits assumed): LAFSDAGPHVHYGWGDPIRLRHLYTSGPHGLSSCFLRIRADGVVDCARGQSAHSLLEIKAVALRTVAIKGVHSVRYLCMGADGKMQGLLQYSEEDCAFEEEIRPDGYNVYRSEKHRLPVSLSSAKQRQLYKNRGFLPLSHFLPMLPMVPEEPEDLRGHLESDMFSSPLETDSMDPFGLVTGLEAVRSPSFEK

B1: chimeric anti-FGF19 antibody 1A6 (antibody, V domains shown)
VH: QVQLKQSGPGLVQPSQSLSITCTVSGFSLTTYGVHWVRQSPGKGLEWLGVIWPGGGTDYNAAFISRLSITKDNSKSQVFFKMNSLLANDTAIYFCVRKEYANLYAMDYWGQGTLLTVSA
VL: DIKMTQSPSSMYASLGERVTIPCKASQDINSFLSWFQQKPGKSPKTLIYRANRLVDGVPSRFSGSGSGQDYSLTISSLEYEDMGIYYCLQYDEFPLTFGAGTKVEIKR
notes: also called chimeric 1A6; ch1A6
Regarding B1, in the assay with Human FGF19 [1], the “KD (fold weaker), against chimeric 1A6” value turned out to be 1 fold; the “Ka (fold slower), against chimeric 1A6” value is 1 fold; the “Kd (fold faster), against chimeric 1A6” value was 1 fold. In the assay with Human FGF19 [2], the Kd was 0.032 nM, the koff was determined as 5.4e-05 s⁻¹ and the kon came to 1.7e+06 M⁻¹ s⁻¹. The molecule further showed an IC50 with Human FGF19 [3] of 0.675 µg/mL. In the assay with Cynomolgus FGF19, this molecule came in with a Kd of 0.087 nM, a dissociation rate constant (koff) of 6.6e-05 s⁻¹ and an on-rate constant (kon) of 760000 M⁻¹ s⁻¹. The IC50 in the assay with Human FGF19 [4] stood at 4.5 nM. In the assay with Human FGF19 [5], this molecule gave a dissociation constant (Kd) of 0.036 nM, an off-rate (koff) of 5.3e-05 s⁻¹ and a kon of 1.47e+06 M⁻¹ s⁻¹.

B2: 1A6-graft (direct HVR-graft of 1A6), expressed as IgG (antibody, V domains shown)
VH: EVQLVESGGGLVQPGGSLRLSCAASGFSLTTYGVHWVRQAPGKGLEWVGVIWPGGGTDYNAAFISRFTISRDNSKNTLYLQMNSLRAEDTAVYYCVRKEYANLYAMDYWGQGTLVTVSS
VL: DIQMTQSPSSLSASVGDRVTITCKASQDINSFLSWYQQKPGKAPKLLIYRANRLVDGVPSRFSGSGSGTDFTLTISSLQPEDFATYYCLQYDEFPLTFGQGTKVEIKR
notes: Tested as IgG produced in 293 cells; also called 1A6 grafted antibody; 1A6 HVR graft
In the case of B2, the “fold reduction of binding affinity relative to chimeric 1A6” value with Human FGF19 [6] was > 50 fold. In addition, in the assay with Human FGF19 [1], the “KD (fold weaker), against chimeric 1A6” value was found to be 58.1 fold; the “Ka (fold slower), against chimeric 1A6” value came out at 24.8 fold; the “Kd (fold faster), against chimeric 1A6” value came to 2.3 fold. In the assay with Human FGF19 [5], this molecule registered a Kd of 2.09 nM, a koff of 0.000124 s⁻¹ and a kon of 59300 M⁻¹ s⁻¹.

B3: hu1A6.A100bR (HVR-H3) (antibody, name in Kabat numbering, V domains shown)
VH: B2 VH with A105R
VL: B2 VL
Turning to B3, in the assay with Human FGF19 [1], the “KD (fold weaker), against chimeric 1A6” value is 2.3 fold; the “Ka (fold slower), against chimeric 1A6” value amounted to 2.6 fold; the “Kd (fold faster), against chimeric 1A6” value was found to be 0.9 fold.

B4: hu1A6.S34T (HVR-L1) (antibody, V domains shown)
VH: B2 VH
VL: B2 VL with S34T
B4: in the assay with Human FGF19 [1], the “KD (fold weaker), against chimeric 1A6” value is 14 fold; the “Ka (fold slower), against chimeric 1A6” value worked out at 12 fold; the “Kd (fold faster), against chimeric 1A6” value stood at 1.2 fold.

B5: hu1A6.V34A (HVR-H1) (antibody, name in Kabat numbering, V domains shown)
VH: B2 VH with V34A
VL: B2 VL
As for B5, in the assay with Human FGF19 [1], the “KD (fold weaker), against chimeric 1A6” value came to 10.5 fold; the “Ka (fold slower), against chimeric 1A6” value stood at 12.5 fold; the “Kd (fold faster), against chimeric 1A6” value was 0.9 fold.

B6: hu1A6.S34A/D56S (HVR-L1/L2) (antibody, V domains shown)
VH: B2 VH
VL: B2 VL with S34A, D56S
notes: Humanized 1A6 variant as IgG
Take B6: in the assay with Human FGF19 [2], the dissociation constant Kd was 0.118 nM, the koff was found to be 4.6e-05 s⁻¹ and the on-rate (kon) is 390000 M⁻¹ s⁻¹. In the assay with Cynomolgus FGF19, this molecule yielded a Kd of 0.481 nM, a dissociation rate constant (koff) of 7.7e-05 s⁻¹ and an on-rate (kon) of 160000 M⁻¹ s⁻¹.

B7: hu1A6.V50L (HVR-H2) (antibody, name in Kabat numbering, V domains shown)
VH: B2 VH with V50L
VL: B2 VL
Turning to B7, in the assay with Human FGF19 [1], the “KD (fold weaker), against chimeric 1A6” value amounted to 5.7 fold; the “Ka (fold slower), against chimeric 1A6” value worked out at 6.3 fold; the “Kd (fold faster), against chimeric 1A6” value was 0.9 fold.

B8: hu1A6.A100bP/M100kS (HVR-H3) (antibody, name in Kabat numbering, V domains shown)
VH: B2 VH with A105P, M106S
VL: B2 VL
notes: also called A100bP/M100cS
Consider B8, for which, in the assay with Human FGF19 [1], the “KD (fold weaker), against chimeric 1A6” value amounted to 0.9 fold; the “Ka (fold slower), against chimeric 1A6” value is 1.7 fold; the “Kd (fold faster), against chimeric 1A6” value was 0.5 fold.

B9: hu1A6.H35Q (HVR-H1) (antibody, name in Kabat numbering, V domains shown)
VH: B2 VH with H35Q
VL: B2 VL
With B9, in the assay with Human FGF19 [1], the “KD (fold weaker), against chimeric 1A6” value is 6.6 fold; the “Ka (fold slower), against chimeric 1A6” value amounted to 5 fold; the “Kd (fold faster), against chimeric 1A6” value came out at 1.3 fold.

B10: hu1A6.S34A (HVR-L1) (antibody, V domains shown)
VH: B2 VH
VL: B2 VL with S34A
Take B10: in the assay with Human FGF19 [1], the “KD (fold weaker), against chimeric 1A6” value came out at 9.1 fold; the “Ka (fold slower), against chimeric 1A6” value was 7.7 fold; the “Kd (fold faster), against chimeric 1A6” value is 1.2 fold.

B11: hu1A6.Q90S (HVR-L3) (antibody, V domains shown)
VH: B2 VH
VL: B2 VL with Q90S
For B11, in the assay with Human FGF19 [1], the “KD (fold weaker), against chimeric 1A6” value came out at 16 fold; the “Ka (fold slower), against chimeric 1A6” value came to 10.4 fold; the “Kd (fold faster), against chimeric 1A6” value stood at 1.5 fold.

B12: hu1A6.S34G/D56S (HVR-L1/L2) (antibody, V domains shown)
VH: B2 VH
VL: B2 VL with S34G, D56S
notes: Humanized 1A6 variant as IgG
In the assay with Human FGF19 [2], B12 registered a dissociation constant (Kd) of 0.114 nM, a koff of 1.6e-05 s⁻¹ and an on-rate constant (kon) of 140000 M⁻¹ s⁻¹. In the assay with Cynomolgus FGF19, this molecule registered a Kd of 0.906 nM, a koff of 4.8e-05 s⁻¹ and an on-rate constant (kon) of 53000 M⁻¹ s⁻¹.

The record behind these values is patent US20110076262A1 (Genentech, published 2011).
